Test [1] has as its target Human MET protein on the cell surface (human) (UniProt P08581). The test is described as follows: FACS on NCI-H1703 cells (MET single-positive).
Test [2] has the same target. The test is described as follows: cell-based or functional assay.
The target of test [3] is Human HER3 and MET proteins together on HER3/MET double-positive cells (human) (UniProt P21860). The test is described as follows: cell-based or functional assay.
Test [4] deals with Human HER3 protein on the cell surface (human) (UniProt P21860). Kind of test: cell-based or functional assay.
Test [5] shares this target. Kind of test: FACS on MDA-MB-453 cells (HER3 single-positive).
The target in test [6] is Human HER3 and MET proteins together on HER3/MET double-positive cells (human) (UniProt P21860). The test is described as follows: cell-based or functional assay. The source holds these as a separate data set.
Test [7] has the same target. The test is described as follows: FACS on HCC827 Osimertinib-resistant cells (HER3/MET double-positive).

Read-outs that look alike come from different tables or passages of the source.

The values that follow come from patent EP4778941A1, “HER3/MET BINDING MOLECULE AND PHARMACEUTICAL USE THEREOF” (priority 2023, dated 2025).

Chain of Human MET protein on the cell surface (human) (P08581 25-1390): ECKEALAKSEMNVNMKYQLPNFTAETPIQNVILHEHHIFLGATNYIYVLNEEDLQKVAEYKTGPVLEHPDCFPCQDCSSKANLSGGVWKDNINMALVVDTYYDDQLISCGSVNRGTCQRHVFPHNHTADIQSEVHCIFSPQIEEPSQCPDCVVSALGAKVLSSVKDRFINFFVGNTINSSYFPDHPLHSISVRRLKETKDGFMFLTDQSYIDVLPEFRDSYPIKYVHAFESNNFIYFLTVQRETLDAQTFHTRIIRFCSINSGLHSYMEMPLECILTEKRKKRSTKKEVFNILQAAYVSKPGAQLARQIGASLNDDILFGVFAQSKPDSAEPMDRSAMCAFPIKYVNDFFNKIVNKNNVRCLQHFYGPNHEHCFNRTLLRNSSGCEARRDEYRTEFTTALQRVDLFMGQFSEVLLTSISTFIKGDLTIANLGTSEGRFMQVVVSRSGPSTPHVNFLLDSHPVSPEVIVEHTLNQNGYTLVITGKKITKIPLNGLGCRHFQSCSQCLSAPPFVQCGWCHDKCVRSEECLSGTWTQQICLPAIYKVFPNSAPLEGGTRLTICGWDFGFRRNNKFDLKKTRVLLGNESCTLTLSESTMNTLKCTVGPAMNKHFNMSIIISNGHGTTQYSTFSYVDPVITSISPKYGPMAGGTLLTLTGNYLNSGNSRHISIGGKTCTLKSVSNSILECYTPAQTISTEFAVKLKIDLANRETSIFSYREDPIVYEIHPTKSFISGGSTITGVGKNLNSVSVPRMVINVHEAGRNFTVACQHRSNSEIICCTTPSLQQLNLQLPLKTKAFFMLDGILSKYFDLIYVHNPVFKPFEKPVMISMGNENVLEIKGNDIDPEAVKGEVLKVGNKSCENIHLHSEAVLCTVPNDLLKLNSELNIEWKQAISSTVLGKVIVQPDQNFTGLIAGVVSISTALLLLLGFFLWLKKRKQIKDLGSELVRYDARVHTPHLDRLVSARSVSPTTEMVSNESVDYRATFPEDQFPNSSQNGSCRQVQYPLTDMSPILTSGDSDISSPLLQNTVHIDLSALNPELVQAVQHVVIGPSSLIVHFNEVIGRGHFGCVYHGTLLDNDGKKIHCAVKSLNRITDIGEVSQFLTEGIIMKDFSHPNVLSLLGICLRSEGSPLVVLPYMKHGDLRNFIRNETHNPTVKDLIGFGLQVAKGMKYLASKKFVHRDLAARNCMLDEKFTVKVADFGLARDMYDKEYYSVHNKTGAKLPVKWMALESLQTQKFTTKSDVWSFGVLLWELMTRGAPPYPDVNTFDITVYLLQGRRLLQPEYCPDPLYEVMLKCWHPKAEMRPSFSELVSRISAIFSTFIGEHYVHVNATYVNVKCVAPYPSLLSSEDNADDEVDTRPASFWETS

Turning to IgG1 isotype control antibody, the Maximum fluorescence value in test [1], in test [5] and in test [7] was 74 in each case. Moreover, the Minimum cell viability (%) in test [2] turned out to be 78.6%; in test [3] it was 90.9%; in test [4], 92.9%; in test [6] it was 102%.
